Where no end group is shown, it is not given here.
B1: Phage-3575 (peptide)
peptide: FIAQCQPTWMCTGF
notes: Peptide-180 library clone, tested as clonal phage supernatant with the peptide fused to pIII of the bacteriophage
B2: Phage-3569 (peptide)
peptide: VAQWCTPSWMCDGF
notes: as for B1
B3: Phage-3570 (peptide)
peptide: VDKACTPAWMCTGF
notes: as for B1
B4: Phage-3572 (peptide)
peptide: VPTLCKPSWMCYGF
notes: as for B1
B5: Phage-3574 (peptide)
peptide: EDIKCIPRWMCEGF
notes: as for B1
B6: Phage-3571 (peptide)
peptide: EMPLCIPQWMCGGF
notes: as for B1
B7: Phage-3568 (peptide)
peptide: PEAYCVPSWMCTGF
notes: as for B1
B8: Phage-3567 (peptide)
peptide: DAMLCRPSWMCDGF
notes: as for B1
B9: Phage-3573 (peptide)
peptide: AWMRCEPAWMCVGF
notes: as for B1
B10: Phage-3606, clonal phage showing a Peptide-180 library peptide (peptide)
peptide: VVVSCTPSWMCTGL
notes: Tested as crude clonal phage supernatant; not shown: pIII filament protein of the bacteriophage, fused to the peptide
B11: Phage-3610, clonal phage showing a Peptide-180 library peptide (peptide)
peptide: VQPACVPIWMCDGL
notes: as for B10
B12: Phage-3608, clonal phage showing a Peptide-180 library peptide (peptide)
peptide: ETVRCIPSWMCTGL
notes: as for B10
B13: Phage-3605, clonal phage showing a Peptide-180 library peptide (peptide)
peptide: WTFKCEPVWMCEGF
notes: as for B10
B14: Phage-3604, clonal phage showing a Peptide-180 library peptide (peptide)
peptide: HVAMCQPTWMCMGF
modifications: cysteine pairing not given here; also: fused to pIII of bacteriophage, junction and order not given here
notes: as for B10
B15: Phage-3607, clonal phage showing a Peptide-180 library peptide (peptide)
peptide: LDIVCRPSWMCYGF
notes: as for B10
B16: Phage-3609, clonal phage showing a Peptide-180 library peptide (peptide)
peptide: SHMVCKPTWMCQGF
notes: as for B10

target: T1, PSMA Fab (biotinylated (site not stated)); assay: clonal phage ELISA on captured PSMA Fab, competitor PSMA antigen pre-incubated
T1 construct: Biotinylated PSMA Fab captured on neutravidin coated plates in the phage ELISA; also called Anti-PSMA Fab; 006 PSMA Fab

Row | Binder | Phage binding ELISA signal, Anti-PSMA Fab with PSMA antigen
1 | PDPLCVPNWMCIGL [Phage-3593] | 0.0686
2 | VETLCRPAWMCWGF [Phage-3598] | 0.0788
3 | LERLCRPAWMCDGF [Phage-3596] | 0.136
4 | MPGACVPLWMCYGF [Phage-3590] | 0.0685
5 | WEVRCEPAWMCIGL [Phage-3600] | 0.0694
6 | TEIRCQPQWMCHGF [Phage-3594] | 0.0698
7 | EELMCRPVWMCLGF [Phage-3591] | 0.0789
8 | VMHRCEPSWMCWGF [Phage-3601] | 0.118
9 | QGVACIPTWMCTGF [Phage-3595] | 0.0711
10 | EIPWCVPSWMCNYF [Phage-3597] | 0.0904
11 | EGLRCVPAWMCAGF [Phage-3603] | 0.0633
12 | QDLKCVPSWMCSGF [Phage-3599] | 0.0713
13 | HEPVCKPSWMCTGL [Phage-3602] | 0.0595
14 | VEKMCKPAWMCNVF [Phage-3592] | 0.0777

target: T2, PSMA Fab (006 PSMA Fab); assay: clonal phage ELISA on biotinylated PSMA Fab captured on neutravidin, anti-M13 HRP detection;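 also: crude clonal phage supernatants added to wells pretreated with PSMA antigen in blocking buffer or with blocking buffer only, then briefly incubated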
T2 construct: also called Anti-PSMA Fab
Method: (§1) Clonal phage were harvested as crude supernatants and screened via standard ELISAs. […] Prior to the addition of clonal phage. wells were incubated with blocking buffer and PSMA antigen or blocking buffer alone. Without washing or aspirating, clonal phage supernatants were then added to the wells and incubated for a short time. Wells were then washed followed by detection of bound phage using a horse radish conjugated anti-M13 antibody.

Row | Binder | Phage binding ELISA signal, Anti-PSMA Fab
15 | B1 | 1.62
16 | B2 | 1.62
17 | B3 | 1.62
18 | B4 | 1.62
19 | B5 | 1.62
20 | B6 | 1.62
21 | B7 | 1.62
22 | B8 | 1.62
23 | B9 | 1.62

target: T1, PSMA Fab; assay: as above
Method: as §1

Row | Binder | Phage binding ELISA signal, Anti-PSMA Fab
24 | PDPLCVPNWMCIGL [Phage-3593] | 1.6
25 | VETLCRPAWMCWGF [Phage-3598] | 1.59
26 | LERLCRPAWMCDGF [Phage-3596] | 1.59
27 | MPGACVPLWMCYGF [Phage-3590] | 1.6
28 | WEVRCEPAWMCIGL [Phage-3600] | 1.59
29 | TEIRCQPQWMCHGF [Phage-3594] | 1.6
30 | EELMCRPVWMCLGF [Phage-3591] | 1.6
31 | VMHRCEPSWMCWGF [Phage-3601] | 1.58
32 | QGVACIPTWMCTGF [Phage-3595] | 1.59
33 | EIPWCVPSWMCNYF [Phage-3597] | 1.59
34 | EGLRCVPAWMCAGF [Phage-3603] | 1.58
35 | QDLKCVPSWMCSGF [Phage-3599] | 1.59
36 | HEPVCKPSWMCTGL [Phage-3602] | 1.58
37 | VEKMCKPAWMCNVF [Phage-3592] | 1.6

target: T2, PSMA Fab (006 PSMA Fab); assay: clonal phage ELISA on captured PSMA Fab, wells pre-incubated with PSMA antigen as competitor
Method: as §1

Row | Binder | Phage binding ELISA signal, Anti-PSMA Fab in presence of PSMA
38 | B1 | 0.076
39 | B2 | 0.0794
40 | B3 | 0.0716
41 | B4 | 0.0941
42 | B5 | 0.0923
43 | B6 | 0.0691
44 | B7 | 0.0764
45 | B8 | 0.0871
46 | B9 | 0.0695

target: T3, Anti-PSMA Fab; assay: phage binding ELISA on captured anti-PSMA Fab; wells pre-incubated with PSMA antigen as competitor; anti-M13-HRP detection
T3 construct: Biotinylated and captured on neutravidin coated plates in the phage ELISA; also called 006 PSMA Fab
Method: as §1

Row | Binder | Phage binding ELISA signal, Anti-PSMA Fab with PSMA antigen
47 | LGHWCSPTWMCMGF (Tested as clonal phage supernatant) [Phage-3581 (Peptide-180 library clone)] | 0.11
48 | ESHLCRPAWMCTGF (Tested as clonal phage supernatant) [Phage-3588 (Peptide-180 library clone)] | 0.089
49 | QLAMCVPLWMCYGF (Tested as clonal phage supernatant) [Phage-3580 (Peptide-180 library clone)] | 0.092
50 | HEPVCRPEWMCQGF (Tested as clonal phage supernatant) [Phage-3587 (Peptide-180 library clone)] | 0.0717
51 | ESYTCVPMWMCTGF (Tested as clonal phage supernatant) [Phage-3582 (Peptide-180 library clone)] | 0.088
52 | ETFTCKPPWMCIGF (Tested as clonal phage supernatant) [Phage-3576 (Peptide-180 library clone)] | 0.104
53 | NLGWCVPVWMCEGF (Tested as clonal phage supernatant) [Phage-3586 (Peptide-180 library clone)] | 0.101
54 | NIMRCQPSWMCTGF (Tested as clonal phage supernatant) [Phage-3583 (Peptide-180 library clone)] | 0.064
55 | YEKLCEPRWMCDGF (Tested as clonal phage supernatant) [Phage-3577 (Peptide-180 library clone)] | 0.0657
56 | TTLMCTPQWMCDGF (Tested as clonal phage supernatant) [Phage-3589 (Peptide-180 library clone)] | 0.0718
57 | TFMRCEPVWMCDGF (Tested as clonal phage supernatant) [Phage-3585 (Peptide-180 library clone)] | 0.0709
58 | YDVVCKPAWMCNGF (Tested as clonal phage supernatant) [Phage-3578 (Peptide-180 library clone)] | 0.0676
59 | GMGMCVPTWMCTGM (Tested as clonal phage supernatant) [Phage-3579 (Peptide-180 library clone)] | 0.0797
60 | PSPICRPEWMCVWL (Tested as clonal phage supernatant) [Phage-3584 (Peptide-180 library clone)] | 0.0954

target: T4, PSMA Fab (006 PSMA Fab), biotinylated (biotinylated (site and chain not stated)); assay: phage ELISA; biotinylated PSMA Fab on neutravidin plate, blocking buffer alone, bound phage detected with HRP anti-M13 antibody
T4 construct: also called Anti-PSMA Fab; anti-PSMA Fab

Row | Binder | Phage binding ELISA signal, Anti-PSMA Fab
61 | B10 | 1.58
62 | B11 | 1.58
63 | B12 | 1.58
64 | B13 | 1.58
65 | B14 | 1.58
66 | B15 | 1.58
67 | B16 | 1.58

target: T3, Anti-PSMA Fab; assay: phage binding ELISA; clonal phage supernatant on biotinylated anti-PSMA Fab captured on neutravidin plate; anti-M13-HRP detection
Method: as §1

Row | Binder | Phage binding ELISA signal, Anti-PSMA Fab
68 | LGHWCSPTWMCMGF (Tested as clonal phage supernatant) [Phage-3581 (Peptide-180 library clone)] | 1.62
69 | ESHLCRPAWMCTGF (Tested as clonal phage supernatant) [Phage-3588 (Peptide-180 library clone)] | 1.6
70 | QLAMCVPLWMCYGF (Tested as clonal phage supernatant) [Phage-3580 (Peptide-180 library clone)] | 1.62
71 | HEPVCRPEWMCQGF (Tested as clonal phage supernatant) [Phage-3587 (Peptide-180 library clone)] | 1.6
72 | ESYTCVPMWMCTGF (Tested as clonal phage supernatant) [Phage-3582 (Peptide-180 library clone)] | 1.61
73 | ETFTCKPPWMCIGF (Tested as clonal phage supernatant) [Phage-3576 (Peptide-180 library clone)] | 1.62
74 | NLGWCVPVWMCEGF (Tested as clonal phage supernatant) [Phage-3586 (Peptide-180 library clone)] | 1.61
75 | NIMRCQPSWMCTGF (Tested as clonal phage supernatant) [Phage-3583 (Peptide-180 library clone)] | 1.61
76 | YEKLCEPRWMCDGF (Tested as clonal phage supernatant) [Phage-3577 (Peptide-180 library clone)] | 1.62
77 | TTLMCTPQWMCDGF (Tested as clonal phage supernatant) [Phage-3589 (Peptide-180 library clone)] | 1.6
78 | TFMRCEPVWMCDGF (Tested as clonal phage supernatant) [Phage-3585 (Peptide-180 library clone)] | 1.61
79 | YDVVCKPAWMCNGF (Tested as clonal phage supernatant) [Phage-3578 (Peptide-180 library clone)] | 1.62
80 | GMGMCVPTWMCTGM (Tested as clonal phage supernatant) [Phage-3579 (Peptide-180 library clone)] | 1.62
81 | PSPICRPEWMCVWL (Tested as clonal phage supernatant) [Phage-3584 (Peptide-180 library clone)] | 1.61

target: T4, PSMA Fab (006 PSMA Fab), biotinylated; assay: phage ELISA; biotinylated PSMA Fab on neutravidin plate, wells first incubated with PSMA antigen as competitor, HRP anti-M13 detection
Method: as §1

Row | Binder | Phage binding ELISA signal, Anti-PSMA Fab with PSMA antigen
82 | B10 | 0.0718
83 | B11 | 0.0782
84 | B12 | 0.0717
85 | B13 | 0.101
86 | B14 | 0.123
87 | B15 | 0.0774
88 | B16 | 0.074

— patent US20260242478A1 (published 2026)
